Assay results as given in IntAct's records for PubMed 19798056.

B1: TOM1-like protein 1 (Homo sapiens), O75674 (parent)
chain: MAFGKSHRDPYATSVGHLIEKATFAGVQTEDWGQFMHICDIINTTQDGPKDAVKALKKRISKNYNHKEIQLTLSLIDMCVQNCGPSFQSLIVKKEFVKENLVKLLNPRYNLPLDIQNRILNFIKTWSQGFPGGVDVSEVKEVYLDLVKKGVQFPPSEAEAETARQETAQISSNPPTSVPTAPALSSVIAPKNSTVTLVPEQIGKLHSELDMVKMNVRVMSAILMENTPGSENHEDIELLQKLYKTGREMQERIMDLLVVVENEDVTVELIQVNEDLNNAILGYERFTRNQQRILEQNKNQKEATNTTSEPSAPSQDLLDLSPSPRMPRATLGELNTMNNQLSGLNFSLPSSDVTNNLKPSLHPQMNLLALENTEIPPFAQRTSQNLTSSHAYDNFLEHSNSVFLQPVSLQTIAAAPSNQSLPPLPSNHPAMTKSDLQPPNYYEVMEFDPLAPAVTTEAIYEEIDAHQHKGAQNDGD

Variants of: B1
Settings: with grb2_human GRB2, P62993

effect of a mutation on the interaction | Variant
disrupting interaction | Y392F

Variants of: B1
Settings: with grb2_human GRB2, P62993
Remark: another data set of the same source

effect of a mutation on the interaction | Variant
disrupting interaction | Y460F
